The assay has as its target Alexa Fluor 488 labeled α-synuclein (UniProt P37840). In words: MST; apparent; constant 50 nM αS-AF488, dilution series of 16 HSA concentrations (50 μM to 6.25 nM); 10 mM Na2HPO4, 1.8 mM KH2PO4, 137 mM NaCl, 2.7 mM KCl, pH 7.4; Monolith NT.115, LED power 20%, MST power 20, 40 and 80%, data normalised and averaged.

As for “human serum albumin (from UniProt P02768 25-609) (natural protein)”, the Kd amounted to 300 nM.

For the origin of these results see PMC9986870.
